Measurements published in article PMC8807474, “Single-Molecule Fluorescence Imaging Reveals GABAB Receptor Aggregation State Changes” (Frontiers in Chemistry, 2021).

B1: GBR2-EGFP (receptor, UniProt O75899 42-941, looked up)
chain: WARGAPRPPPSSPPLSIMGLMPLTKEVAKGSIGRGVLPAVELAIEQIRNESLLRPYFLDLRLYDTECDNAKGLKAFYDAIKYGPNHLMVFGGVCPSVTSIIAESLQGWNLVQLSFAATTPVLADKKKYPYFFRTVPSDNAVNPAILKLLKHYQWKRVGTLTQDVQRFSEVRNDLTGVLYGEDIEISDTESFSNDPCTSVKKLKGNDVRIILGQFDQNMAAKVFCCAYEENMYGSKYQWIIPGWYEPSWWEQVHTEANSSRCLRKNLLAAMEGYIGVDFEPLSSKQIKTISGKTPQQYEREYNNKRSGVGPSKFHGYAYDGIWVIAKTLQRAMETLHASSRHQRIQDFNYTDHTLGRIILNAMNETNFFGVTGQVVFRNGERMGTIKFTQFQDSREVKVGEYNAVADTLEIINDTIRFQGSEPPKDKTIILEQLRKISLPLYSILSALTILGMIMASAFLFFNIKNRNQKLIKMSSPYMNNLIILGGMLSYASIFLFGLDGSFVSEKTFETLCTVRTWILTVGYTTAFGAMFAKTWRVHAIFKNVKMKKKIIKDQKLLVIVGGMLLIDLCILICWQAVDPLRRTVEKYSMEPDPAGRDISIRPLLEHCENTHMTIWLGIVYAYKGLLMLFGCFLAWETRNVSIPALNDSKYIGMSVYNVGIMCIIGAAVSFLTRDQPNVQFCIVALVIIFCSTITLCLVFVPKLITLRTNPDAATQNRRFQFTQNQKKEDSKTSTSVTSVNQASTSRLEGLQSENHRLRMKITELDKDLEEVTMQLQDTPEKTTYIKQNHYQELNDILNLGNFTESTDGGKAILKNHLDQNPQLQWNTTEPSRTCKDPIEDINSPEHIQRRLSLQLPILHHAYLPSIGGVDASCVSPCVSPTASPRHRHVPPSFRVMVSGL
notes: GABAB receptor subunit 2 (GBR2, GABAB2); source: HEK293, transfected, expressed alone at low expression level, on cells

Assays:
O75899 = test: single-molecule photobleaching step counting (TIRFM); GBR1-EGFP co-expressed with unlabeled GBR2 in HEK293 cells; EGFP spots on the cell membrane; one bleaching step = one heterodimer, two steps = tetramer of two heterodimers (heterodimers to tetramer); resting state; also after 1 mM GABA …; conditions: other: single-molecule photobleaching step counting (TIRFM)
[1] = biological target: the molecule itself; test: single-molecule photobleaching step counting (TIRFM); GBR2-EGFP expressed alone at low expression level in HEK293 cells; EGFP spots on the cell membrane; monomer to homodimer

Molecule	percent of spots with one-step bleaching (single heterodimer) (O75899)	percent of spots with two-step bleaching (tetramer of two heterodimers) (O75899)	stoichiometry N [1]
GABAB receptor heterodimer GBR1-EGFP/GBR2	about 50% population	about 30% receptors	
B1			2
